In the DeepSol protein solubility set:

assay: soluble on expression in E. coli; label from the status in PepcDB or PDB records

Sequence | soluble on expression in E. coli
MSLREIHVDTLTDAVAKLCIDACHRLPDNLVESFHKAAEKEVSPLGKSVLMKLIDNDRIARENDVSYCHDTGLAIVFVEVGQDVHIVGGSYEDAIQAGVRKGYAEGYMRKSVVSDPLLRVNSNDNTPAVVHTEIVPGDNIEVTVVPKGGGSENWSTMKFLLPGEGAEGVKKFVLSAIEAAGGAACPPLTVGVGIGGSFDKVTAIAKKAILRDIGVHHKEPHVAKLEAELLDAINKTGIGPQGYGGVNTALWVSVETYACHITALPVAVNIQCHAGRRATAVIEGHHHHHH | soluble
MKTKTARLFALTALTAATTMPLAAQVSAQEASPREATISVSGEGQAAIAPDMAILSFSVVKQAETAAAALTENSKALAEVLKALKEAAIEDRDLQTSNFSVQPLYKHYEPKDGVYVAPEITGYQVSNGLTVRVRDLKMLGTILDTSVKLGINQGGDITFTNDKPEATVTEARKQAVADAIAKAKTLTEAAGVKLGRVIQISENSQRPMPVPAGMMRASMMKEADSVPIASGENNYSVVVNVTFALDQ | not soluble
MEESPTKTFKCPKCWNKFENKPKLITHVDLECKHKYFRCELCDFKSTQKTGLTSHYHGHIRQSNVIHCPYCKKKKTFKSRNNLMVHVHHYHPTHINEMKQANLESAKEEKMKTMLEKQAKEAHEFEISQPAVFEKDFASYDLPMFSQCPPMNGIPVSTPIEYPYSQNPYQDHTPFDSYPYPNFHPQQLPLPTFENNLPDIATYFDL | not soluble
PQKIFTPSAEIVKYTKIIAMEKLYAVFTDYEHDKVSRDEAVNKIRLDTEEHLKEKFPEVDQFEIIESFNIVAKEVFRSIILNEYKRCDGRD | soluble
MSLNHPDYKLNLRSPGTPRGVSSVVGPSAVGASPGDKKSKNKSMRGKKKSIFETYMSKEDVSEGLKRGTLIQGVLRINPKKFHEAFIPSPDGDRDIFIDGVVARNRALNGDLVVVKLLPEDQWKAVKPESNDKEIEATYEADIPEEGCGHHPLQQSRKGWSGPDVIIEAQFDDSDSEDRHGNTSGLVDGVKKLSISTPDRGKEDSSTPVMKDENTPIPQDTRGLSEKSLQKSAKVVYILEKKHSRAATGILKLLADKNSDLFKKYALFSPSDHRVPRIYVPLKDCPQDFMTRPKDFANTLFICRIIDWKEDCNFALGQLAKSLGQAGEIEPETEGILTEYGVDFSDFSSEVLECLPQSLPWTIPPDEVGKRRDLRKDCIFTIDPSTARDLDDALACRRLTDGTFEVGVHIADVSYFVPEGSSLDKVAAERATSVYLVQKVVPMLPRLLCEELCSLNPMTDKLTFSVIWKLTPEGKILEEWFGRTIIRSCTKLSYDHAQSMIENPTEKIPEEELPPISPEHSVEEVHQAVLNLHSIAKQLRRQRFVDGALRLDQLKLAFTLDHETGLPQGCHIYEYRDSNKLVEEFMLLANMAVAHKIFRTFPEQALLRRHPPPQTKMLSDLVEFCDQMGLPMDVSSAGALNKSLTKTFGDDKYSLARKEVLTNMYSRPMQMALYFCSGMLQDQEQFRHYALNVPLYTHFTSPIRRFADVIVHRLLAAALGYSEQPDVEPDTLQKQADHCNDRRMASKRVQELSIGLFFAVLVKESGPLESEAMVMGVLNQAFDVLVLRFGVQKRIYCNALALRSYSFQKVGKKPELTLVWEPDDLEEEPTQQVITIFSLVDVVLQAEATALKYSAILKRPGLEKASEGHHHHHH | soluble
MEYNPFHNGHLYHLTSARELVKPDYTIAVMSGNFCQRGEPAVIDKFARAEIALRMGVDVVLELPVVFATQDAGGFAFGAVCVLDATGVVTDVVFGSESNDIEFLQRVARILYEQPDEYQKFLHEELKKGYSFPNARKYALMRYFSMKGWNEEEVLKLEKSNDILGVEYIHSALKIGSNIRFHTIKRVGAEEKDTSFRGRFSSATAIRNLMREKRWEEVRDSLPEDSFEILMREINEGRGPVFLENMGDFLLSFFRLKNMDFFEKIHGFSEGLEKRFHVCARQTGSYRDFLECVKAKRFTFSRIRRLALFSVFEVNKEFVEKSNTKGPQYIRILGFTEKGREILSLMRKKAKLPIVTNMSLYRKVLEKTDLPVDKQLFLEQIDLDVKATNFYSMFFPSVEQRCGERDFSIHPIFLRTEM | not soluble
MRTLAIDIGGTKIALAIVEEGTIIQRYQIATPVVQDVTKFVQAILEKVTEWLPSIDYVGVSTTGYVTPEGITSINPETLNFPVPFPLAQTLEQLTNKPVSILNDAQAAAWFEFVQLKNPSLNMAFITVSTGVGGGIIIDGKLHKGNSGLAGHIGHMSVAIEGPLCGCGQRGCVESMASGNAIQKESEATFTETMSNVELFKQAAFNPKAEAIINRSVQAVATLCCNLKACLDLDIIVLGGGIGLAEGYLERLNKAIQSRPSVFHIPVTPAHGDYDACLLGAAFQFKE | not soluble
